Measured values reported in article PMC11530598.

Legend:
[1] = target: tubulin (taxol-stabilized microtubules); experiment: TIRF intensity of HC on microtubules; details: reference: HC1-1500 + DYRK1a without ATP
actin (filaments) = actin (filaments) (UniProt P68135); experiment: TIRF intensity of HC on actin filaments; details: reference: HC1-1500 + DYRK1a without ATP
[2] = target: taxol-stabilized microtubules (porcine brain tubulin) (porcine); experiment: TIRF microscopy binding assay (fluorescence intensity on filaments); fluorescent MAP1B constructs in solution on taxol-stabilized microtubules held on the coverslip; titrations for KD (KD of the LC called apparent); 10 nM on WT and subtilisin-digested microtubules in the same chamber; 90 mM Hepes pH 7.4, 150 mM K-acetate, 2 mM Mg-acetate, 1 mM EGTA, 10% glycerol, 10 uM taxol
[3] = target: subtilisin-digested microtubules (porcine brain tubulin without the C-terminal tails) (porcine); experiment: as above
[4] = target: taxol-stabilized microtubules (porcine brain tubulin) (porcine)
[5] = target: taxol-stabilized microtubules (porcine brain tubulin) (porcine); experiment: TIRF microscopy binding assay (fluorescence intensity on filaments); 50 nM bacterially expressed HC^1-1500 on microtubules after incubation with DYRK1a with or without ATP (37 C, 30 min)
[6] = target: actin filaments (rabbit skeletal muscle actin) (rabbit) (UniProt P68135); experiment: TIRF microscopy binding assay (fluorescence intensity on filaments); 50 nM bacterially expressed HC^1-1500 on actin filaments after incubation with DYRK1a with or without ATP (37 C, 30 min)

MAP1B (heavy chain HC, light chain LC/LC1) HC 1-1500 (from UniProt P14873) HC1-1500 + DYRK1a with ATP
other: percent reduction [1]: 21% | other: percent reduction (actin (filaments)): 75%

MAP1B HC MTBD^639-767 (from UniProt P14873 639-767) (domain or fragment)
Kd [2]: 13.6 nM

MAP1B HC^1-2202-sfGFP (full-length MAP1B heavy chain) (from UniProt P14873 1-2202) (domain or fragment)
Kd [2]: 3.8 nM

MAP1B LC 2203-2464-sfGFP (from UniProt P14873 2203-2464) (domain or fragment)
Kd [2]: 1.5 nM | percent decrease of fluorescence intensity against WT microtubules [3]: 87%

TMR-spastin (truncated human spastin, delta227) (from UniProt Q9UBP0 1-616) (enzyme)
reduction of microtubule fluorescence intensity after 10 min with spastin (severing) in the presence of 10 nM LC-sfGFP; 82% with spastin alone [4]: 19% | reduction of microtubule fluorescence intensity after 10 min with spastin (severing) in the presence of 50 nM sfGFP-HC^1-1500; 82% with spastin alone [4]: 60%

sfGFP-MAP1B HC^1-532 (from UniProt P14873 1-532) (domain or fragment)
Kd [2]: 185 nM

sfGFP-MAP1B HC^1-1103 (from UniProt P14873 1-1103) (domain or fragment)
Kd [2]: 1.1 nM

sfGFP-MAP1B HC^1-1500, bacterially expressed (from UniProt P14873 1-1500) (domain or fragment)
Kd [2]: 1.8 nM | percent decrease of fluorescence intensity against WT microtubules [3]: 45%

sfGFP-MAP1B HC^1-1500, bacterially expressed, phosphorylated by DYRK1a (from UniProt P14873 1-1500) (domain or fragment)
percent reduction of fluorescence intensity on microtubules against the sample without ATP [5]: 21% | percent reduction of fluorescence intensity on actin filaments against the sample without ATP [6]: 75%
